These results are taken from patent US9505841B2, “Use of an anti-Ang2 antibody” (Samsung Electronics Co., Ltd., priority 2013, dated 2016).

Assay [1] has as its system human colorectal cancer cell line Colo205. The assay is described as follows: Colo205 colorectal cancer xenograft tumor growth. In kind it is in vivo, mouse. The note with it: BALB/c nude mice; 10 mg/kg intraperitoneal twice a week. The method, then: To see the tumor growth inhibitory effects of Ang2 antibody, a colorectal cancer xenograft model using a human colorectal cancer cell line Colo205 (ATCC) was employed.
The Colo205 cell line was cultured using 10% FBS (Gibco)-supplemented RPMI-1640 (Gibco) media. 5×10^5 of Colo205 cell line were re-suspended in 100 ul of serum-free media and then subcutaneously injected into anesthetic 4˜5-week-old BALB/c nude mice (Shanghai SLAC Laboratory Animal Co. Ltd.) anesthetized with 1-2% isoflurane. When the size of tumors reached 100˜200 mm^3, anti-Ang2 antibody (10D6) was injected at the concentration of 10 mg/kg via an intraperitoneal injection twice a week and the size of the tumors was measured.
The size of tumor (V) was calculated using the following formula: V=(length×width^2)/2

The test system of the next assay is Tie2 receptor. The assay is described as follows: Tie2, Akt and 42/44 phosphorylation in HUVEC: antibody 10D6 versus 10D6 Fab. The note with it: 60 nM 10D6 antibody or 10D6 Fab with 40 nM Ang2. In kind it is cell-based, human. The method, then: To see whether the activation of a Tie2 receptor is resulted from the dimerization of antibody 10D6, Fab fragments of antibody 10D6 were purified and then used for this experiment. The Fab fragments were obtained from antibody 10D6 using an Fab Preparation Kit (Pierce). As a digestion buffer, PBS containing 20 mM EDTA and 20 mM L-Cysteine was used, and the antibody was separated into Fab and Fc by the treatment with an immobilized papain at a room temperature for 2 hours. The Fc fragments were removed from the reaction solution using MabSelectSuRe column (GE Healthcare) to isolate and purify pure Fab fragments only.
HUVEC (ATCC) cells (1×10^6) were cultured in a 100 mm culture dish using EGM-2 (Lonza) media at 37° C. and when they reached 80˜90% confluency, the media were replaced with serum-free media (Lonza) and cultured at 37° C. for 6 to 16 hours. The dish was washed once with PBS and after the replacement with […] sodium orthovanadate (Sigma)-mixed serum free media (Lonza), they were further cultured for 10 min. After washed once with PBS, the cultured cells were treated with a mixture prepared by mixing 60 nM of 10D6 Ang2 antibody or 10D6 Fab with 40 nM of Ang2 protein (R&D systems) and letting them stand for 20 min. and further cultured for 10 min. […]

Assay [2] concerns lymphatic endothelial cells. The experiment in a line: BrdU proliferation assay, lymphatic endothelial cells. The format is cell-based. The note with it: 2 ug/ml Ang2 with 10 ug/ml antibody; 3 days. The protocol:
The measurement assay of the proliferation of vascular and lymphatic endothelial cells was conducted using a BrdU assay kit (Roche) Cell. Vascular endothelial cells of P3˜P8 (HUVEC, ATCC) or lymphatic endothelial cells (Lonza) were placed in a collagen-coated 96-well plate (BD Bioscience) at 3000˜5000 cells/well and cultured in EGM-2 media (Lonza) for 16˜24 hours. A mixture of 2 ug/ml of Ang2 (R&D systems) and 10 ug/ml of antibody 10D6 in 2% EBM media was added to the 96-well plate washed with PBS, which was then cultured for 3 days.
For efficiency comparison, an anti-Ang2 antibody (MEDI: Medlmmune Co.) was used. For a BrdU assay, 10 ul of BrdU solution diluted at 1:1,000 was added to each well of the plate to label the cells. The cells were cultured for 1 hour and after the removal of the culture solution, 100 ul of Fixation/Denaturation solution (Roche) was added to each well and then, removed after 30-min wait. An anti-BrdU antibody (Roche) conjugated with peroxidase was diluted in a dilution buffer (Roche) at 1:100, added to each well to react for 1 hour and then, washed four times using a washing buffer (Roche). 100 ul of a TMB substrate was added thereto to react and then, absorption was measured at 450 nm using a Microplate reader (Perkin Elmer).

The next assay deals with T1, Ang2:Tie2 receptor (Homo sapiens, UniProt O15123).
T1 construct: purchased R&D systems (Tie2-Fc)
T1 sequence (O15123 19-496): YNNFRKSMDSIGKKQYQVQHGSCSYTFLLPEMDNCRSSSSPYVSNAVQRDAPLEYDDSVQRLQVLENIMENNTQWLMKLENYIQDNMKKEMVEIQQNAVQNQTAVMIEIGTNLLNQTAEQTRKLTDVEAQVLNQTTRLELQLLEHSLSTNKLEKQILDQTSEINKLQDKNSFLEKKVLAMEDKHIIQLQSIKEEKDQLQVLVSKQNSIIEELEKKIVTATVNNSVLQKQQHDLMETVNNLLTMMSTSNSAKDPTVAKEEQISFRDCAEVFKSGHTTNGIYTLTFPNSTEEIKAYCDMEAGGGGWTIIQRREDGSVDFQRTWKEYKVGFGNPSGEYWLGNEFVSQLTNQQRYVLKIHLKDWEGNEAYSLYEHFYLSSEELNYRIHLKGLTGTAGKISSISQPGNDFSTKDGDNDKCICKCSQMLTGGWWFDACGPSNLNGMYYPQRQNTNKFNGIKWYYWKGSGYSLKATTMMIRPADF
T1 sequence (Q02763 23-745 partner limits assumed): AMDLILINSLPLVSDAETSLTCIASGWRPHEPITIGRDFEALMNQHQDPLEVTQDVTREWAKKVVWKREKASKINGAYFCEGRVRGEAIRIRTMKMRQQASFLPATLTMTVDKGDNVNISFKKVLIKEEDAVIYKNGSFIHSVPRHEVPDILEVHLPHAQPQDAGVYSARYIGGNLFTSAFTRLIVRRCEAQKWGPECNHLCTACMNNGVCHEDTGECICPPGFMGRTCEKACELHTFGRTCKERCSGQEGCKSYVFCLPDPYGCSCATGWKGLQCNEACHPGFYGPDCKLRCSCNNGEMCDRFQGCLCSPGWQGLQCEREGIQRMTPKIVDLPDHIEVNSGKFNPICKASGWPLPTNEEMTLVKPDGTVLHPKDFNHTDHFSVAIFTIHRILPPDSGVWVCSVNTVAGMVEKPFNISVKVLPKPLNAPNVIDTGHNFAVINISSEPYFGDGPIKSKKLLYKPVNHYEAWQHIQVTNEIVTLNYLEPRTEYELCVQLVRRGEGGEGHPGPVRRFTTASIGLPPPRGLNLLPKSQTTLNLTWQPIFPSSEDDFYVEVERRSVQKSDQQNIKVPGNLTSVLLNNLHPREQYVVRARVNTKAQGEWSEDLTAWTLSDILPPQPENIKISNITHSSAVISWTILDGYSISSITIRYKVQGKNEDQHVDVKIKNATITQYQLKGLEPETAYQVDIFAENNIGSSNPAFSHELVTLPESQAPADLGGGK
The assay is described as follows: ELISA for formation of 10D6-Ang2-Tie2 complex. The format is binding. The note with it: Tie2-Fc coated; 0.25 ug/ml Ang2, 2 ug/ml antibody. The protocol: A 96-well MaxiSorp™ flat-bottom plate (Nunc) was coated with 4 ug/ml of Tie2-Fc (R&D systems) or BSA (Sigma). Then, the plate was washed five times with 0.05% (v/v) Tween-20-containing PBS (Phosphate Buffer Saline) and blocked with 1% (v/v) BSA (Bovine serum albumin; Sigma)-containing PBS at a room temperature for 2 hours. 0.25ug/ml of Ang2 and 2ug/ml of antibody 10D6 were added to each well of the plate, which was allowed to react at a room temperature for 2 hours and then washed five times with PBST. After that, an anti-mouse IgG antibody (Sigma) conjugated with HRP diluted in 1% (v/v) BSA-containing PBS at a ratio of 1:5,000 (v/v) was added in an amount of 100 ul to each well to react at a room temperature for 1 hour and then, the plate was washed five times with PBST. Lastly, 100 ul (microliter) of TMB substrate (Cell Signaling) was added to each well of the plate to induce color development for 3 min. and then, the reaction was ceased by the addition of 100 ul of Stop solution (Cell Signaling) and OD450 values were measured on a plate reader (Molecular Devices).
A general note: ELISA stands for enzyme-linked immunosorbent assay.

B1: 10D6: mouse anti-Ang2 monoclonal antibody from hybridoma KCLRF-BP-00295; heavy chain variable region SEQ ID NO: 7, light chain variable region SEQ ID NO: 9 (antibody, V domains shown)
VH: DVQLQESGPGLVKPSQSLSLTCTVTGYSITSDYAWNWIRQFPGNKLEWMGYINYSGNTDYNPSLKSRSSITRDTSKNQFFLQLNSVTTGDTATYYCARGNFEGAMDYWGQGTSVTVSS
VL: SIVMTQTPKFLLVSAGDRVTITCKASQSVSNDVAWYQQKPGQSPKLLIYYASNRYPGVPDRFTGSGYGTDFTFTISTVQAEDLAVYFCQQDYSSPWTFGGGTKLEIK
modifications: Synthetic (Heavy chain variable region of an anti-Ang2 antibody); Synthetic (Light chain variable region of anti-Ang2 antibody)
Regarding B1, the “tumor growth in Colo205 xenograft” value in assay [1] is listed as “inhibited the growth of colorectal cancer”. Besides, in the assay with Tie2 receptor, the “phosphorylation of Tie2, Akt and 42/44” value is recorded as “occurred”. For the same molecule, the “growth of lymphatic endothelial cells (BrdU)” value in assay [2] is recorded as “increased”. For the same molecule, the “formation of complex with Ang2 bound to Tie2” value with Ang2:Tie2 receptor is on record as “formed a complex”.
